For the assay, the target named is HLA-A*02 (on target cells) (human). The assay is described as follows: cell-based or functional assay.

As for VLHDDLLEA [HA-1(H) peptide], the “EC50 right shift of the NY-ESO-1 TCR by 50 uM HA-1(H) peptide” value is around 30 fold.

The values above are taken from patent US20240173352A1 (A2 BIOTHERAPEUTICS, published 2024).
